Laboratory results published in paper PMC10716096, “A scalable overexpression of a thermostable recombinant poly-histidine tag carboxyl esterase under lambda promoter: purification, characterization, and protein modelling” (Journal of Genetic Engineering & Biotechnology, 2023).

Test system: CCCCCCCCCCCC(=O)Oc1ccc([N+](=O)[O-])cc1
Test: purified protein
Details: pH 7.4, 60 °C, substrate 10-30 mM

Substance “EstB (6xHis carboxyl-esterase B) (Geobacillus thermoleovorans)” has a Km of 22.756 mM and a kcat of 0.993 s⁻¹.
